This data set concerns the molecule itself. Briefly: gel filtration over Superdex-200 HR FPLC column (self-association). Here is the method: Approximately 100 μg protein was loaded onto Superdex-200 HR (Pharmacia) FPLC column equilibrated with buffer A (PBS, 4 mM β-mercaptoethanol, 2 mM EDTA), and run for 60 min at 0.5 ml/min. O.D. was measured at 215 nm, and the column profile was obtained by running separately standard marks.
The primary structure of galectin-8 resembles that of galectin-4, namely, two homologous (38% identity) carbohydrate-binding regions (CRDs) linked by a short ≈30-amino acids linking peptide. This unique architecture is shared so far only by two galectins: rat galectin-4 (12) and its *C. elegans* homologue (13). Other galectin types, that contain a single CRD, exist and function as non-covalent dimers, which provides them with the potential to aggregate or agglutinate glycoconjugates. Since galectin-4 exists as a monomer, experiments were carried out to determine whether galectin-8 exists as a monomer or a dimer. […] Hepatic galectin-8 (FIG. 6) has a similar mobility on SDS-PAGE as its recombinant counterpart (FIG. 5).

B1: tag-free recombinant galectin-8 (other)
chain: MLSLSNLQNIIYNPTIPYVSTITEQLKPGSLIVIRGHVPKDSERFQVDFQHGNSLKPRADVAFHFNPRFKRSNCIVCNTLTNEKWGWEEITHDMPFRKEKSFEIVIMVLKNKFHVAVNGKHILLYAHRINPEKIDTLGIFGKVNIHSIGFRFSSDLQSMETSTLGLTQISKENIQKSGKLHLSLPFEARLNASMGPGRTVVVKGEVNTNATSFNVDLVAGRSRDIALHLNPRLNVKAFVRNSFLQDAWGEEERNITCFPFSSGMYFEMIIYCDVREFKVAVNGVHSLEYKHRFKDLSSIDTLAVDGDIRLLDVRSW
With B1, the binding result is reported as “no binding”.
